US7109015B2, “Removal of N-terminal methionine from proteins by engineered methionine aminopeptidase” (Academia Sinica, priority 2004, dated 2006)
Residue numbers refer to the chain shown, from its start. Numbers in names are those of the source. Where “and” joins values, the source holds several entries; their conditions need not be identical. Identical values can stand only once. Like-named read-outs stand apart in the source and are kept apart here.

Experiments:
[1] = tested on: Met-tagged onconase; experiment: In vivo catalytic activity of MetAPs co-expressed with Met-tagged onconase in E. coli BL21(DE3); N-terminus by Edman degradation; type: cell-based; conditions: in vivo in E. coli
From the text: Residues Tyr168, Met206 and Gln233 in the putative substrate-binding site of E. coli MetAP were mutated by site-directed mutagenesis based on the crystal structure and amino acid sequence alignment of MetAPs (Ben-Bassat et al., 1987; Lowther et al., 1999; Walker et al., 1999). For the expression of secretory ribonucleases, the ribonuclease gene was cloned and expressed as described previously (Huang et al., 1998).
Most of the co-expressed target protein, e.g., onconase or RC-RNase L1, existed in insoluble cell lysate. They were denatured, renatured and purified as described previously (Liao et al., 2003). The purified ribonucleases were stored in 20 mM sodium phosphate, pH 7.0, for pyroglutamate formation at the N-terminus. Alternatively, the ribonuclease secreted into culture medium through pe1B system was concentrated and purified to electrophoretical homogeneity at a yield of 1˜5 mg per 1 liter of culture (Huang et al., 1998).

[2] = target: T1, synthetic oligopeptides (Escherichia coli, UniProt P0AE18, M206T/Q233G/Y168G); type: biochemical; conditions: dodecapeptides, in vitro
T1 construct: […]; made in house; host or cells: E. coli BL21(DE3)
T1 sequence (P0AE18 2-264 Y168G/M206T/Q233G): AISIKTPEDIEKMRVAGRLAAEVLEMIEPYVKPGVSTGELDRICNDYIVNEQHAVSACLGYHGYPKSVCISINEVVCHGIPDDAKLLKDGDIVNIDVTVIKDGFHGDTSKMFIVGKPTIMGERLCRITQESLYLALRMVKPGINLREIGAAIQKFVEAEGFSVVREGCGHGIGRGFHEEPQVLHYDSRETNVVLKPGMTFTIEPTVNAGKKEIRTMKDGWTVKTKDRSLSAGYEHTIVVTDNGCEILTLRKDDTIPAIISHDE
Method: (§1) The oligopeptide substrates used in this experiment were synthesized on the 432A Synergy peptide synthesizer (Applied Biosystems, Foster, Calif., USA). The enzymatic activity of purified MetAP was assayed as described by Ben-Bassat et al., 1987. Briefly, the diluted MetAP enzyme in 10 μl was added to 90 μl of the substrate solution containing 4 mM oligopeptide, 0.1 M potassium phosphate buffer, pH 7.5 and 0.2 mM CoCl2, incubated at 37° C. for 10 min and stopped in boiling water for 2 min. After addition of 0.9 ml of color development mixture containing 0.2 mg of L-amino acid oxidase, 0.03 mg of horseradish peroxidase and 0.2 mg of o-dianisidine in 0.1 M Tris-HCl, pH 7.4, the mixtures were incubated for 10 min at 37° C., and the optical density at 440 nm was recorded. One unit of activity is defined as 1 μmol of amino acids produced per min under the assay conditions and the pure Met was used as standard. The N-terminal residues of the MetAP-treated oligopeptide were further verified by Edman degradation.

[3] = tested on: synthetic oligopeptides; type: biochemical; conditions: for Specific activity (unit/mg): 4 mM oligopeptide, pH 7.5, 37° C.
Method: as §1

[4] = E. coli MetAP mutations; Chiu et al. 1999; cited from earlier work

B1: MetAP-GTG (protein)
chain: T1 sequence (P0AE18 2-264 Y168G/M206T/Q233G)
Catalytic activity (%): percent of penultimate residue removed ([1]; substrate MAA-Onc): 30% | Catalytic activity (%): removal of N-terminal Met ([1]; substrate MAA-Onc): 100% | Catalytic activity (%): percent of penultimate residue removed ([1]; substrate MAG-Onc): 16% | Catalytic activity (%): removal of N-terminal Met ([1]; substrate MAG-Onc): 86% | Catalytic activity (%): removal of N-terminal Met ([1]; substrate MAL-Onc): 100% | Catalytic activity (%): removal of N-terminal Met ([1]; substrate MAM-Onc): 96% | Catalytic activity (%): removal of N-terminal Met ([1]; substrate MDD-Onc): 27% | Catalytic activity (%): removal of N-terminal Met ([1]; substrate MED-Onc): 35% | Catalytic activity (%): percent of penultimate residue removed ([1]; substrate MFA-Onc): 100% | Catalytic activity (%): removal of N-terminal Met ([1]; substrate MFA-Onc): 36% | Catalytic activity (%): removal of N-terminal Met ([1]; substrate MFD-Onc): 23% | Catalytic activity (%): removal of N-terminal Met ([1]; substrate MIA-Onc): 96% | Catalytic activity (%): removal of N-terminal Met ([1]; substrate MID-Onc): 94% | Catalytic activity (%): removal of N-terminal Met ([1]; substrate MKA-Onc): 9% | Catalytic activity (%): removal of N-terminal Met ([1]; substrate MKD-Onc): 7% | Catalytic activity (%): percent of penultimate residue removed ([1]; substrate MLA-Onc): 80% | Catalytic activity (%): removal of N-terminal Met ([1]; substrate MLA-Onc): 100% | Catalytic activity (%): removal of N-terminal Met ([1]; substrate MLD-Onc): 90% and 98% | Catalytic activity (%): percent of penultimate residue removed ([1]; substrate MLG-Onc): 46% | Catalytic activity (%): removal of N-terminal Met ([1]; substrate MLG-Onc): 87% | Catalytic activity (%): percent of penultimate residue removed ([1]; substrate MLH-Onc): 51% | Catalytic activity (%): removal of N-terminal Met ([1]; substrate MLH-Onc): 100% | Catalytic activity (%): percent of penultimate residue removed ([1]; substrate MLL-Onc): 55% | Catalytic activity (%): removal of N-terminal Met ([1]; substrate MLL-Onc): 93% | Catalytic activity (%): removal of N-terminal Met ([1]; substrate MLM-Onc): 100% | Catalytic activity (%): percent of penultimate residue removed ([1]; substrate MLN-Onc): 68% | Catalytic activity (%): removal of N-terminal Met ([1]; substrate MLN-Onc): 100% | Catalytic activity (%): percent of penultimate residue removed ([1]; substrate MLP-Onc): 95% | Catalytic activity (%): removal of N-terminal Met ([1]; substrate MLP-Onc): 55% | Catalytic activity (%): percent of penultimate residue removed ([1]; substrate MLS-Onc): 69% | Catalytic activity (%): removal of N-terminal Met ([1]; substrate MLS-Onc): 87% | Catalytic activity (%): percent of penultimate residue removed ([1]; substrate MLT-Onc): 54% | Catalytic activity (%): removal of N-terminal Met ([1]; substrate MLT-Onc): 72% | Catalytic activity (%): percent of penultimate residue removed ([1]; substrate MLV-Onc): 69% | Catalytic activity (%): removal of N-terminal Met ([1]; substrate MLV-Onc): 97% | Catalytic activity (%): removal of N-terminal Met ([1]; substrate MQD-Onc): 97% | Catalytic activity (%): percent of penultimate residue removed ([1]; substrate MQM-Onc): 100% | Catalytic activity (%): removal of N-terminal Met ([1]; substrate MQM-Onc): 100% | Catalytic activity (%): value in parenthesis after Met and Gln removal (third cleavage site, second Met) ([1]; substrate MQM-Onc): 73% | Catalytic activity (%): percent of penultimate residue removed ([1]; substrate MQN-Onc): 90% | Catalytic activity (%): removal of N-terminal Met ([1]; substrate MQN-Onc): 83% | Catalytic activity (%): percent of penultimate residue removed ([1]; substrate MQP-Onc): 100% | Catalytic activity (%): removal of N-terminal Met ([1]; substrate MQP-Onc): 54% | Catalytic activity (%): percent of penultimate residue removed ([1]; substrate MQT-Onc): 79% | Catalytic activity (%): removal of N-terminal Met ([1]; substrate MQT-Onc): 86% | Catalytic activity (%): removal of N-terminal Met ([1]; substrate MRA-Onc): 8% | Catalytic activity (%): removal of N-terminal Met ([1]; substrate MRD-Onc): 4% | Catalytic activity (%): percent of penultimate residue removed ([1]; substrate MWA-Onc): 89% | Catalytic activity (%): removal of N-terminal Met ([1]; substrate MWA-Onc): 100% | Catalytic activity (%): removal of N-terminal Met ([1]; substrate MWD-Onc): 78% | Catalytic activity (%): removal of N-terminal Met ([1]; substrate MWD-Onc, listed as GTG): much higher activities | Catalytic activity (%): removal of N-terminal Met ([1]; substrate MYA-Onc): 22% | Catalytic activity (%): removal of N-terminal Met ([1]; substrate MYD-Onc): 20% | Catalytic activity (%): removal of N-terminal Met ([1]; substrate MYD-Onc, listed as GTG): much higher activities | Specific activity on […] as % of that for […] [2]: 43% | In vitro catalytic activity ([3]; oligopeptides with Gln at the penultimate residue): the most activity | Specific activity (unit/mg) ([3]; substrate MADY (SEQ ID NO:7)): 1.68 ± 0.51 unit/mg | Specific activity (unit/mg) ([3]; substrate MADYLT (SEQ ID NO:8)): 2.50 ± 0.42 unit/mg | Specific activity (unit/mg) ([3]; substrate MQDYLT (SEQ ID NO:9)): 0.23 ± 0.01 unit/mg | Specific activity (unit/mg) ([3]; substrate […] (SEQ ID NO:5)): 9.80 ± 0.26 unit/mg | Specific activity (unit/mg) ([3]; substrate […] (SEQ ID NO:6)): 4.24 ± 0.14 unit/mg

B2: C70S: E. coli MetAP mutation in the putative substrate-binding pocket (protein, UniProt P0AE18 2-264, looked up, variant C70S)
Methionine aminopeptidase: T1 sequence (P0AE18 2-264 Y168G/M206T/Q233G) with C69S, G167Y, T205M, G232Q
Catalytic activity, % activity of the wild type [4]: 54%

B3: F177L: E. coli MetAP mutation in the putative substrate-binding pocket (protein, UniProt P0AE18 2-264, looked up, variant F177L)
Methionine aminopeptidase: T1 sequence (P0AE18 2-264 Y168G/M206T/Q233G) with G167Y, F176L, T205M, G232Q
Catalytic activity, % activity of the wild type [4]: do not reduce catalytic activity

B4: W221L: E. coli MetAP mutation in the putative substrate-binding pocket (protein, UniProt P0AE18 2-264, looked up, variant W221L)
Methionine aminopeptidase: T1 sequence (P0AE18 2-264 Y168G/M206T/Q233G) with G167Y, T205M, W220L, G232Q
Catalytic activity, % activity of the wild type [4]: 27%
